Results: PMC6238609, “Secretory granule protein chromogranin B (CHGB) forms an anion channel in membranes” (Life Science Alliance, 2018)

Assays:
[1] = molecular target: the molecule itself; experiment: SEC; partially purified CHGB in a Superose 6 column, earlier SEC step during purification
[2] = molecular target: the molecule itself; experiment: SEC; purified CHGB in detergent (0.050% Triton X-100), Superose 6 10/30 column; single symmetric peak

B1: recombinant murine chromogranin B (CHGB) (natural protein, mouse, UniProt P16014 21-677, looked up)
chain: APVDNRDHNEEMVTRCIIEVLSNALSKSSVPTITPECRQVLKKSGKEVKGEEKGENQNSKFEVRLLRDPADASGTRWASSREDAGAPVEDSQGQTKVGNEKWTEGGGHSREGVDDQESLRPSNQQASKEAKIYHSEERVGKEREKEEGKIYPMGEHREDAGEEKKHIEDSGEKPNTFSNKRSEASAKKKDESVARADAHSMELEEKTHSREQSSQESGEETRRQEKPQELTDQDQSQEESQEGEEGEEGEEGEEGEEDSASEVTKRRPRHHHGRSGSNKSSYEGHPLSEERRPSPKESKEADVATVRLGEKRSHHLAHYRASEEEPEYGEESRSYRGLQYRGRGSEEDRAPRPRSEESQEREYKRNHPDSELESTANRHGEETEEERSYEGANGRQHRGRGREPGAHSALDTREEKRLLDEGHYPVRESPIDTAKRYPQSKWQEQEKNYLNYGEEGDQGRWWQQEEQLGPEESREEVRFPDRQYEPYPITEKRKRLGALFNPYFDPLQWKNSDFEKRGNPDDSFLEDEGEDRNGVTLTEKNSFPEYNYDWWERRPFSEDVNWGYEKRSFARAPQLDLKRQYDGVAELDQLLHYRKKADEFPDFYDSEEQMGPHQEANDEKARADQRVLTAEEKKELENLAAMDLELQKIAEKFSQRG
notes: chromogranin B (CHGB), mouse; cDNA of the mouse CHGB gene (mChgb) cloned from a pcDNA3.1 plasmid into pFastBac 1; The protein needs Triton X-100-like detergents to stay soluble; also called mCHGB; mouse CHGB; source: sf9 cells (baculovirus), purified (Q-sepharose, ammonium sulfate, Ni-IDA, Superose 6 SEC) in Triton X-100
[1]
  stoichiometry N: 4
[2]
  stoichiometry N: 2
